Positions count from the first letter of the chain named.

B1: C68.185 (antibody, V domains shown)
VH: QVQLVQSGAEVKKPGASVKVSCKTSGYAFTDHYVHWVRQAPGQGLEWMGVINPSGVGTSYAQMFQDRVTLTSDTSTSTVYMVLSSLRSEDTAVYYCVRDDYGVPARGWFDPWGQGTLVTVSS
VL: EVVLTQSPATLSLSPGERATLSCRASQSISSYLAWYQQKPGQAPRLLIYDASNRATGVPARFSGSGSGADFTLTISSLEAEDFALYYCQHRSNWLYTFGQGTKLEIK
B2: C68.83 (antibody, V domains shown)
VH: EVQLVESGGGVVQPGRSLRLSCAASGFIFSSYGMHWVRQAPGKGLEWVAVIWYDGSNKYYADSVKGRFTISRDNSKNTLYLQMNSLRAEDTAVYYCARDDPEVGCSGGSCYYYYDMDVWGQGTTVTVSS
VL: SYELTQPPSVSVSPGQTARITCSGDALPKQHAHWYQQKPGQAPVLVIYKDIERPSGIPERFSGSSSGTTVTLTISGVQAEDEADYYCQSADSSVTYVVFGGGTKLTVL
B3: C68.121 (antibody, V domains shown)
VH: EVQLVESGGGLVKPGGSLRLSCAASGFTFSDYYMTWIRQAPGKGLEWVSKITNSNSYTHYADSVKGRFTISRDNAKNSLFLHMNSLRAEDTAVYYCARAIWIGYPDDYYMDVWGKGTTVTVSS
VL: SYELTQPPSVSVSPGQTARITCSGDTLPNQYVYWYQQKPGQAPVLLIYKDTERPSGIPERVSGSTSGTTVTLTISGVQAEDEADYYCQSADSSGTSFGGGTKLTVL
B4: C68.327 (antibody, V domains shown)
VH: EVQLLESGGGLVQPGGSLRLSCAASGFTFGSYAMSWVRQAPGKGLEWVSAISGSGGSTYYADSVKGRFTISRDNSKNTLYLQMNSLRAEDTAVYNCAKDLWDGFHWFDSWGQGTLVTVSS
VL: DIQMTQSPSSVSASVGDRVTITCRASQGISSWLAWYQQKPGKAPNLLIYSASSLQSGVPSRFSGSGSGTDFTLTISSLQPEDFATYYCQQANSFPITFGQGTRLEIK
B5: C68.175 (antibody, V domains shown)
VH: EVQLLESGGGLVQPGGSLRLSCAASGFTFSSYAMSWVRQAPGKGLEWVSGISGSGGSTYYADSVKGRFTISRDNSKNTLHLQMNSLRAEDTAVYYCAKGSRWNPDYFDYWGQGTLVTVSS
VL: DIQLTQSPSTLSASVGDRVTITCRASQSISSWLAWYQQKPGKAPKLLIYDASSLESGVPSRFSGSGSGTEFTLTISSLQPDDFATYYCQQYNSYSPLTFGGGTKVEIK
B6: C68.88 (antibody, V domains shown)
VH: QVQLQESGPGLVKPSETLSLTCSVSGGPISSSRYYWGWIRQSPGEGLEWIGTIYYSGSTYYNPSFKSRVTISVDTSKNQFSLKLSSVTAADTAVYYCATRCYDFWSGYYNREMLWFDCWGQGTLVTVSS
VL: NFMLTQPHSVSESPGKTVTISCTRSSGSIASNYVQWYQQRPGSSPTTVIYENNQTPSGVPDRFSGSIDSSSNSASLTISGLKTEDEADYYCQSYDSSVVVFGGGTKLTVL
B7: C68.183 (antibody, V domains shown)
VH: EVQLLESGGGLVQPGGSLRLSCVASGFTFRNFAMSWVRQAPGKGLEWVSAISGSGDSTYYADSVKGRFTISRDNSKNTLYLQVNSLRVEDTAIYYCAKGSRGSTDYFDSWGQGTLVTVSS
VL: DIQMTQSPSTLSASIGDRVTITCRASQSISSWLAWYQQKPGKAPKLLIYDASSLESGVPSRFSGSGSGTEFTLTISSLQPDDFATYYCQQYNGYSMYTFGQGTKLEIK
B8: C68.200 (antibody, V domains shown)
VH: EVQLLESGGGLVQPGGSLRLSCTASGFTFSRYALTWVRQAPGKGLEWVSAISGSGGNTNYADSVKGRFTISRDNSKNTLYLQMNSLRAEDTAVYYCAKSPRYNNDYFDFWGQGTLVTVSS
VL: DIQLTQSPSTLSASVGDRVTITCRASQSISSWLAWYQQKPGKAPKLLIYDASSLESGVPSRFSGSGSGTEFTLTISSLQPDDFATYYCQQYNTFITFGHGTRLEIK
B9: C68.203 (antibody, V domains shown)
VH: B8 VH with W47C, I51F, G56D, N57S, N59Y, N104S
VL: B8 VL with T93S, H99Q
B10: C68.348 (antibody, V domains shown)
VH: QVQLQESGPRLVKSSGTLSLTCAVSGGSISSSKWWSWVRQPPGKGLEWIGEVYHGGSTNYNPSLKSRVTISVDKAKNQFSLKLSSVTAADSAVYYCASLDSAAVFDYWGQGTLVTVSS
VL: QSALTQPASVSGSPGQSITISCTGTSSDVGRFNYVSWYQQHPGKAPKLLIYDVSNRPSGVSNRFSGSKSGNTASLTISGLQAEDEADYYCNSYTSSSTLYVFGTGTKVTVL
B11: C68.239 (antibody, V domains shown)
VH: EVQLLESGGGLVQPGGSLRLSCAASGFTFSSYAMSWVRQAPGKGLEWVSAISGGGDNTYYADSVKGRFTISRDNSKNTLYLQMNSLRAEDTAVYFCAKNPITVVPAAWDRGYFDLWGRGTLVTVSS
VL: SYELTQPPSVSVAPRKTARITCGGNNIGSYSVHWYQQRPGQAPVLVVHDDSDRPSGIPERFSGSNSGNTATLTISRVEAGDEADYYCQVWDSSSDHRGVFGGGTKLTVL

For the experiment, the target named is T1, SARS-CoV-2 Wuhan-Hu-1 recombinant spike protein (trimer) (SARS-CoV-2 Wuhan-Hu-1, UniProt P0DTC2).
T1 construct: source: bought: Sino Biologics
The experiment is described as follows: ELISA. To be noted: both partners purified. On the technique in general: ELISA stands for enzyme-linked immunosorbent assay.
Regarding B1, the binding result is reported as “binds”.

In the case of B2, the binding result is reported as “binds”.

In the case of B3, the binding result was “binds”.

Take B4: the binding result is listed as “binds”.

Turning to B5, the binding result is given as “binds”.

B6: the binding result is given as “binds”.

On to B7, for which the binding result was “binds”.

Turning to B8, the binding result is “binds”.

With B9, the binding result is on record as “binds”.

Take B10: the binding result was “binds”.

On to B11, for which the binding result is given as “binds”.

(Values after article PMC11542851 (PLOS Pathogens, 2024).)
